Assay results published in the supplement of paper PMC9170038.

Test system: K4 kissing-loop RNA reporter
Test: apparent KD of K4 kissing-loop reporter; higher = weaker reporter binding
Settings: Eterna round: R107
Experimental: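 RNA-MaP round R107: designed RNA switches with theophylline, tryptophan, arginine or FMN aptamers are transcribed on-chip within common flanks. They are titrated with a labelled K4 kissing-loop RNA reporter in RNA-MaP buffer (100 mM Tris pH 7.5, 80 mM KCl, 4 mM MgCl2), without ligand or with the indicated ligand. Median apparent KD per design.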

[1] = input ligand: theophylline 20 uM
[2] = input ligand: tryptophan 2.4 mM
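Also: bound reporter read as fluorescence of individual clusters on recovered sequencing chips by microscopy, with normalized cluster intensities fitted with a binding model.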

Row | Sequence | apparent KD of K4 kissing-loop reporter (input ligand: FMN 200 uM) | apparent KD of K4 kissing-loop reporter (input ligand: arginine 13.2 mM) | apparent KD of K4 kissing-loop reporter (input ligand: none) | apparent KD of K4 kissing-loop reporter [1] | apparent KD of K4 kissing-loop reporter [2]
1 | CUCGUGGGUUUGAGAGGGCUUGUGGGAAGUGAGGAUAUUUAGGGAGAAAGAAGGCACUAUAGAAUAUAGUGAUGUUAUAUAAGGG [SSFMNA.N] | 314 nM | 95.7 nM | 200 nM | 273 nM | 212 nM
2 | CUCGUGGGUUUGGGAGGGCUUGUGGGAAGAUAGGAUAUCUAGGGAGGGAGAAGGAUCUAUAGAAUAUAGUGAUGUUAUAUAUGGG [SSFMNA.aA] | 118 nM | 261 nM | 165 nM | 230 nM | 106 nM
3 | CUGAUGCUGAUGCGGCGGCCGGUGGUCGUGCGAGGACCGGUACGGCCGCCACUCGCGCGAGUGAUGUUCGCGCGUCGUCGUCGUC [First Shot] | 120 nM | 91.4 nM | 114 nM | 76.9 nM | 117 nM
4 | CUGAUGCUGAUGCGGUGGCCGGUGGUCGUGCGAGGACCGGUACGGCCGCCACUCGCAUGAGUGAUGUUCAUGUGUCGUCGUCGUC [#04 K4 Tryptophan A Exclusion] | 204 nM | 133 nM | 169 nM | 164 nM | 172 nM
5 | CUGGGUUGACGAAAAGUCAACAAAAGAGAAGGAGCGCACGAAAGUGCAGGUAGGUCGCUCAAUCCAGUGAUGUUGGGUCAUCCAG [#SwitchBubble 14 #K4Late] | 568 nM | 580 nM | 800 nM | 1110 nM | 869 nM
6 | CUGGGUUGACGAAAAGUCAACAAAAGAGAAGGAGCGCACGAAAGUGCAGGUAGGUCGCUCAAUCCAGUGAUGUUGGGUCGUCCAG [#OpenEnded 11 #K4Late] | 279 nM | 192 nM | 284 nM | 285 nM | 222 nM
7 | CUGGUGCUGAUGCGGUGGCCGGUGGUCGUGCGAGGACCGGUACGGCCGCCACUCGCAUGAGUGAUGUUCAUGUGUCGUCGUCGUC [whbob_EX_Tryp_A_t1] | 212 nM | 134 nM | 181 nM | 176 nM | 217 nM
8 | CUGGUUCAGUGAUGUUGGAAGGUUUAGGUGAAGGAUAUAUUGCAUAAUAGAAGGUCACGGCCAUGCAAUUAUUAACGUAGCCUGU [theeternabot_exclusion_KL_FMN_A_3] | 279 nM | 114 nM | 172 nM | 126 nM | 158 nM
9 | CUGUCCUACGAAGGAUAUGCUGAUGGGAUCAAACAGUGAUGUUGUUAUGAACUUAGGCUUAUGUGCGCAGAAGGUCGUGGCGACG [theeternabot_sameState_KL_FMN_B_42] | 236 nM | 396 nM | 264 nM | 801 nM | 546 nM
10 | CUGUUUUAGUCGGCCGCCACUGCAAGUGAUGUUUGGAGUAUUAUGCCGUUUCUGUCCAUUGAACCCAGGACCGGGACCGGAUCGU [theeternabot_exclusion_KL_Trp_B_8] | 212 nM | 167 nM | 206 nM | 186 nM | 189 nM
11 | CUUAAGAUAUGAGUGAUGUUUAUGUCCGAAGGAGCGUGCGAAAGUACAGGUAGGUCGCGGAUGUGAGUGAUGUUUAUGUAAGCGA [KL-XArg-A14 #analogue] | 121 nM | 37.1 nM | 120 nM | 75 nM | 103 nM
12 | CUUCGAUUAACAGAUACCAGUCACUUUGGAGCCACACACAAGUGAGUGAUGUUCACUUGUGACCCUUGGCAGCUGUUAGUCGAAG [Theo B Ex t1] | 92.8 nM | 75.4 nM | 83.4 nM | 87.6 nM | 88.1 nM
13 | CUUCUUCUUCCAAUCUCGGCCAACACGGGACGAGGACCGGUACGGCCGCCACUCGUGCAGUGAUGUUGCACGAUGGUGACGGAGA [Engebiisso] | 98.5 nM | 81.1 nM | 84.6 nM | 74.7 nM | 113 nM
14 | CUUGAUGGAAACAUCGAGUAGAUUACUGAUACCAGUAUCGAUAGAUACCCUUGGCAGCAGAAUCAGUGAUCACGAGUGAUGUUCG [Ex Theophylline A K4 8] | 525 nM | 441 nM | 529 nM | 451 nM | 484 nM
15 | CUUGGUGGCUACAUCAGGAAUUGCGGCGGAAAGGAUAUUCAUUGGCGAAGAAGGUUCCAAGUGACGAGUGAUGUUCUUCGUAAGG [theeternabot_sameState_KL_FMN_A_13] | 422 nM | 434 nM | 802 nM | 579 nM | 779 nM
16 | CUUGUACAAGUGAUGUUUGUUAUAUCCGAAGGAGCGUCGUAAUAGACAGGUAGGUCGCGGAGUAAGAUAGUUUUUUUAAUAUCAU [JR_Nu_SSArginiA_Sub029] | 435 nM | 338 nM | 556 nM | 462 nM | 288 nM
17 | GAAAGAAAGUAUGAUACCAGACACCCGAGUGAUGUUCGGAGCAGUGUGAUGUUCUUUUAAGUCCCUUGGCAGCAUAAAAGAAAAG [whbob_SS_Theo_B_sa84] | 122 nM | 142 nM | 126 nM | 101 nM | 91.7 nM
18 | GAACGGAGUGAUGUUCCGUUGACGAUCCUACGAGGACCGGUACGGCCGCCACUCGUAUUGCAGUGAUGUUGCAACCAGCCGUACU [Exclusion Tryptophan A GF 10] | 104 nM | 112 nM | 102 nM | 106 nM | 87.9 nM
19 | GAACGGCGGGCGGCCGCCACUGGUAUACGAGUGAUGUUCGGAUAUACGUGAUGUAAGGUAAUUAUCAGGACCGGGUCAGAGCCGG [#16 K4 Tryptophan B Same State] | 394 nM | 183 nM | 303 nM | 341 nM | 167 nM
20 | GAAGGUCAAAGACCUUCGUGCACACCUGAUACCAGUCGCGAAAGCGACCCUUGGCAGCAGGGCAGUGAUGUUGCCAGUGCACAAA [Omei KL Theo A SS A v5] | 194 nM | 176 nM | 191 nM | 164 nM | 159 nM
21 | GAAGUACAGGCGGCCGCCACUAGUGAUGUUAGUGAUAAAAGAUAUAGUAAAUAUCGGCAUGUAGAUAGGACCGGGCCUGAUGGAG [ggbgmullin] | 311 nM | 220 nM | 256 nM | 236 nM | 226 nM
22 | GAAUGAAAUAUCUGGCCCUAUCAGAAUUGGAAGGAUAUGACGGUCAUCAGAAGGUCCAACUCGUAGUGAUGUUGCGGGUUUUAAA [theeternabot_exclusion_KL_FMN_A_21] | 91.2 nM | 46.3 nM | 41.4 nM | 42.8 nM | 36.2 nM

Row | Sequence | apparent KD of K4 kissing-loop reporter (input ligand: FMN 200 uM) | apparent KD of K4 kissing-loop reporter (input ligand: arginine 13.2 mM) | apparent KD of K4 kissing-loop reporter (input ligand: none) | apparent KD of K4 kissing-loop reporter [1] | apparent KD of K4 kissing-loop reporter [2]
23 | GACAUCUAUCGCCGAUAGUGUUUAUCUUGGGAGGAUAUGUCAGCGGACAGAAGGCCCAGUGAUGUUGGGUAGAUGACCGUUGCUU [Edbiza] | 242 nM | 114 nM | 135 nM | 127 nM | 120 nM
24 | GACGGGCAGUGAUGUUGCCGGUCUCUUGGACGAGGACCGGUACGGCCGCCACUCGAUCUGAUGCGAGAAUUGUAUCUUUUAAUAA [Tegesosoat] | 250 nM | 177 nM | 242 nM | 346 nM | 347 nM
25 | GACUACCGGGCGGCCGCCACUGGGCUCCGAGUGAUGUUCGGAAAGACUCAUACACUGCUGUCAGACAGGACCGGGCCAAGGCGCA [theeternabot_sameState_KL_Trp_B_5] | 145 nM | 170 nM | 172 nM | 201 nM | 151 nM
26 | GAGAACUCUUACGAUACCAGCCGGAGUGAUGUUCCGCGCUUGGACGUAGUAACCCGCACCGGCCCUUGGCAGCGUGGAUCCUAUG [Bibiinor] | 91.1 nM | 81.2 nM | 86.1 nM | 86.8 nM | 80.5 nM
27 | GAGAAUAACGGAAGGAGCGAGUAAUGGAGUGAUGUUCCAAUCAAUAAAACACAAUAAAAUACUCAGGUAGGUCGCCGUAGUAGUU [Exclusion Argiie B GF 12] | 244 nM | 339 nM | 323 nM | 330 nM | 215 nM
28 | GAGAUAGCGACGGCCGCCACUAGUGAUGUUAGUGCGGGUAGAUAGAUACUUGAACAGAAAUGACGUAGGACCGGGUCAGAUAGAG [#02 K4 Tryptophan B Exclusion] | 162 nM | 94.5 nM | 125 nM | 140 nM | 149 nM
29 | GAGCCAGAAGUUGCUGCGGGUUUCAGAGAUACCAGCCGUAUUGUAGGCCCUUGGCAGCUCGAGUGAUGUUCGAGCCGCUUCUAGC [Inma] | 128 nM | 95.4 nM | 120 nM | 115 nM | 114 nM
30 | GAGGCCAAACGGAGUGAUGUUUCGUAUGAUACCAGCAGCGAAAGCUGCCCUUGGCAGCAUGCCACGGCCUCGGCAGGAAACUGCC | 401 nM | 322 nM | 358 nM | 371 nM | 339 nM
31 | GAGGUACAGGCGGCCGCCACUAGUGAUGUUAGUGAUAAAAGAUAUAGUAAAUAUCGGCAUGUAGAUAGGACCGGGCCUGAUGGAG [ptvcmullin] | 234 nM | 214 nM | 234 nM | 234 nM | 209 nM
32 | GAGGUACAGGCGGCCGCCACUAGUGAUGUUAGUGAUAGAAGAUAUAGUAAAUAUCGGCAUUUAGAUAGGACCGGGCCUGGUGGUG [ffdfcmullin] | 296 nM | 242 nM | 271 nM | 286 nM | 275 nM
33 | GAGUUUCGUAAAGGAUAUUCUAGCUAAAGCCAUUAGUGAUGUUGAUGUACGGACGGAAGCCUGGCAGAAGAAGGUUAACAGGAUU [theeternabot_sameState_KL_FMN_B_24] | 708 nM | 326 nM | 410 nM | 420 nM | 312 nM
34 | GAUACGUCAGUGAUGUUGAUGUAUUACACAGAGGAUAUCGUAAUGACGAGAAGGCUGAGCCAUCUAGAGAUACGUAAGACGUAUC [FMN A SS t5] | 154 nM | 196 nM | 184 nM | 188 nM | 205 nM
35 | GAUCUAUGUCCCGAUACCAGCUCAGAAGCUAGGGAGUGAUGUUCUCGGAGGUUAUCACUGAGCCCUUGGCAGCGGAACGUGACGA [theeternabot_sameState_KL_Theo_B_26] | 227 nM | 182 nM | 239 nM | 230 nM | 218 nM
36 | GAUGAUCGCGCGGCCGCCACUGGUCAGUGAUGUUGACAUUAAGGCGCCGAGUAGUAACGGCGCCACAGGACCGGGCGCGAUGUAG [First Shot] | 135 nM | 155 nM | 156 nM | 126 nM | 176 nM
37 | GAUGCAUAUUCCUGGAGGAAGAUGGUUAAGAAGGAUAUCAAAGCCGUGAGAAGGUCUAAACCUAAUAGUCGAGUGAUGUUCGACC [theeternabot_sameState_KL_FMN_A_35] | 231 nM | 309 nM | 356 nM | 428 nM | 278 nM
38 | GAUGUCUAGAGAUCAUCUAGACACCUAGAUACCAGCAGAUAUAUCUGCCCUUGGCAGCUAGAACCAGUGAUGUUGGUAUAUGCUC [Theo A SS t3] | 259 nM | 256 nM | 307 nM | 360 nM | 229 nM
39 | GAUUCAGUGAUGUUGGAAGGCGAGCGGGAUACCAGCCGAGACUCAGGCCCUUGGCAGCCCACAUAUCCCAGGUAGAUAGUCGCUC [Same State - Theophylline A (Freestyle 10)] | 343 nM | 266 nM | 325 nM | 383 nM | 265 nM
40 | GAUUUAGAGGCGGCCGCCACUAGUGAUGUUAGUGAUGUUUGAUACUGAAUAUAUCGGCGUGUAGAUAGGACCGGGCCAGAUGGAG [zwqqmullin] | 221 nM | 179 nM | 218 nM | 211 nM | 203 nM
41 | GCACUGAAGUGAUGUUUUUGUGCACGUUGAAAGGAUAUCUGCUUGUAGAGAAGGUUCUGUUUGUGCGGAGCGGGCGUUACCGGCA [theeternabot_exclusion_KL_FMN_A_32] | 307 nM | 269 nM | 310 nM | 285 nM | 308 nM
42 | GCACUUCUCAGUGAUGUUGAGUAAUCGGAAGGAGCGCGUGAAAACGCAGGUAGGUCGCCGAUACAUGAAGUAUCUUCGUGUGUGC [Arginine A K4 25] | 306 nM | 235 nM | 295 nM | 279 nM | 216 nM
43 | GCAGGACGAGGAGGAGGAUGAAUUACUGAAGGAGCGCAUAUUUUUGCAGGUAGGUCGCGGUAAAGAAGUAUAGUGAUGUUAUAUA [SSArgA.L] | 482 nM | 476 nM | 470 nM | 406 nM | 408 nM
